Legend:
[1] = target: T1, TRRAP_(2038-2087) synthetic peptide (N-terminal acetyl (Ac-), C-terminal amide (-NH2)); assay: native MS; equimolar mixture, 15.5 uM coreMYC and 15 uM TRRAP_(2038-2087) peptide in 100 mM ammonium acetate, no EGCG, sample cone 10 V; conditions: both partners purified
T1 construct: transformation/transcription domain-associated protein (TRRAP), residues 2038-2087; also called TRRAP peptide; source: synthetic peptide (GenScript)
T1 peptide: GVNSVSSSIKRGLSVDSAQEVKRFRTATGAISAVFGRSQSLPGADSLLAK

[2] = target: T2, Recombinant human TATA binding protein (ab81897, Abcam) (human); assay: native MS; mixture of coreMYC (6) and full-length TBP (10; concentrations printed as mM), ammonium acetate (TBP exchanged into 1 M), no EGCG, sample cone 50 V; conditions: both partners purified
T2 construct: also called TBP; full-length, human TBP; source: bought: Abcam (ab81897)
T2 chain: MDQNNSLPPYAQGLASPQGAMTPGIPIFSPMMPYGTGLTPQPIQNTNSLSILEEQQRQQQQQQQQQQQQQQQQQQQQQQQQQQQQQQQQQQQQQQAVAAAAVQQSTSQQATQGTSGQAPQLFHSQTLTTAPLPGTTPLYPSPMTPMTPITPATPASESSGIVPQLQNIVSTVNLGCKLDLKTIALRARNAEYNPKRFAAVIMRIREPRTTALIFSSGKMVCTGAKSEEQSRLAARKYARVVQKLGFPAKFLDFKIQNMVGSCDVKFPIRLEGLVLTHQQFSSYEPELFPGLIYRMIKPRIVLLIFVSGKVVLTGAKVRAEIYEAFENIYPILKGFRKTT

stoichiometry N [1]: 1
stoichiometry N [2]: 1
B1: MGHis6-coreMYC (c-MYC residues 101-150) (peptide)
chain: MVTELLGGDMVNQSFICDPDDETFIKNIIIQDCMWSGFSAAAKLVSEKLA
notes: c-MYC, residues 101-150 (coreMYC); Cloned into pET-26b(+); also called MYC_(101-150); COnformational REgulator of c-MYC; source: E. coli BL21 (DE3), purified in-house (solubilised from the pellet in urea, His SpinTrap column); not shown: MGHis6, N-terminal, kept
